Our source for the Km and kcat values is PMC11187625, “New Labeled PET Analogues Enable the Functional Screening and Characterization of PET-Degrading Enzymes” (ACS Sustainable Chemistry & Engineering, 2024).

Common to all, as to test: fluorescence, 4-mU release
What all share (assay type): biochemical, Moraxella sp. TA144
Holding throughout (conditions): 0.1 M phosphate pH 7, 30 °C, 5% DMSO

Data set [1] deals with CCOCCOC(=O)c1ccc(C(=O)Oc2ccc3c(C)cc(=O)oc3c2)cc1. The source says:
(§1) fluorescence, 4-mU release on MoPE (polyesterase)

Data set [2] has as its system COC(=O)c1ccc(C(=O)OCCOC(=O)c2ccc(C(=O)Oc3ccc4c(C)cc(=O)oc4c3)cc2)cc1.
Excerpt: as §1

The test system of data set [3] is COC(=O)c1ccc(C(=O)Oc2ccc3c(C)cc(=O)oc3c2)cc1.
Excerpt: as §1

As usually defined, the Km is the substrate concentration at which the rate is half of its maximum. One may read the kcat as the number of substrate molecules converted per active site and unit of time at saturation. In the case of “MoPE (polyesterase) (Moraxella sp. TA144)”, the Km in data set [1] amounted to 15.6 ± 1.5 µM; in data set [2], 17.4 ± 2.1 µM; in data set [3], 1.9 ± 0.1 µM. The kcat was found to be 0.00014 ± 1e-06 s⁻¹ in data set [1] and 3e-05 ± 1e-06 s⁻¹ in data set [3].
